Patent US20030044899A1

Biological target: integrin α3β1 (human) (UniProt P26006)
Experiment: cell-based or functional assay

Chain of UniProt P26006 (P26006 33-1051, chain 1 of 2): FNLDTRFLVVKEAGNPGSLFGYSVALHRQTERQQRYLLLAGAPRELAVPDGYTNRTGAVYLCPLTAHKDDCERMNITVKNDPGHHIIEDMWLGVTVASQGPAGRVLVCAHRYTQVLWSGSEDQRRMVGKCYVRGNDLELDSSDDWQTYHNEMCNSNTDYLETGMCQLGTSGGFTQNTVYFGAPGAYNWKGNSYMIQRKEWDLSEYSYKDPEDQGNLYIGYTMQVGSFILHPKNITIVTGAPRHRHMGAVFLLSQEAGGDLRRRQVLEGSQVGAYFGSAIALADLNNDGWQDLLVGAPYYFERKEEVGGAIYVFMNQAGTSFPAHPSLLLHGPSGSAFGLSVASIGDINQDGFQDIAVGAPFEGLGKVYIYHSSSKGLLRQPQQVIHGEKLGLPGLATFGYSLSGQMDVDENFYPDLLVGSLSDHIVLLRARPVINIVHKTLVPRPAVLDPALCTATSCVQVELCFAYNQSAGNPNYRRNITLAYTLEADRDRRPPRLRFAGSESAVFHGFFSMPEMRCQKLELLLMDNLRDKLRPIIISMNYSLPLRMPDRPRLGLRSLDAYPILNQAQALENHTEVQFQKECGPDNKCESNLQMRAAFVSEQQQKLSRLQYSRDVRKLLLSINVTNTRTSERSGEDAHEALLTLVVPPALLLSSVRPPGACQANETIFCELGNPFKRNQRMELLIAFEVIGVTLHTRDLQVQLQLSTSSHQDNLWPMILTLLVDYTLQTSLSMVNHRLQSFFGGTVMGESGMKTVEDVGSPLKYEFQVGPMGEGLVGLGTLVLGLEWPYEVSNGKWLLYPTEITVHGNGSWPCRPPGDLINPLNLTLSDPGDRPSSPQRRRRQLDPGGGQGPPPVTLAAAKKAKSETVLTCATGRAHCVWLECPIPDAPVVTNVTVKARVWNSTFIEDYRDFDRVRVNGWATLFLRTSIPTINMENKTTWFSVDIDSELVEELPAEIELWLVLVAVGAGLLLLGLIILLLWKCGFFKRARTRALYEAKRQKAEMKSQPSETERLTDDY
Chain of UniProt P26006 (P05556 21-798, chain 2 of 2, further chain): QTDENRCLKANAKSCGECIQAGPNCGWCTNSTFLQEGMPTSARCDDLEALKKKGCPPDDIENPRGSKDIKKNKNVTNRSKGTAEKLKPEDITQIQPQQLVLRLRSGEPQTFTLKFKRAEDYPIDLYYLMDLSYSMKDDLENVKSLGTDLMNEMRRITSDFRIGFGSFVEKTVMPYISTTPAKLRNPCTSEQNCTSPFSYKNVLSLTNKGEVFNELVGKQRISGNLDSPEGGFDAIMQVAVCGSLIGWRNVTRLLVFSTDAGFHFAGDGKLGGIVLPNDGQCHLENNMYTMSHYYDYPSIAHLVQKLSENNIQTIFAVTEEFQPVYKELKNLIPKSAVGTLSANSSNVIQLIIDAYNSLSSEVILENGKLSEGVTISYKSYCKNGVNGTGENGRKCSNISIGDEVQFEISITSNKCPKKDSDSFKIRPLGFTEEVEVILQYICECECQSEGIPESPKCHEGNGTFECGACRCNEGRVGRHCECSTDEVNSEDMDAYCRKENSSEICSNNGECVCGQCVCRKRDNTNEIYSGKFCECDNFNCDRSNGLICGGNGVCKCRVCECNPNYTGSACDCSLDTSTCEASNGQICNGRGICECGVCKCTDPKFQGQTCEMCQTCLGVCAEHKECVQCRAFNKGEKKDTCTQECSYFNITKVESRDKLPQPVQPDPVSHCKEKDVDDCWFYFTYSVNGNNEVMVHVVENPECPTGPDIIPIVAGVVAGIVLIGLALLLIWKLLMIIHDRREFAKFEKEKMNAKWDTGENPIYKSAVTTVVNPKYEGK

inhibition of HT-1080 cell binding to r-laminin-10 by mAbs against either α3 or β1: 80%
Substance: recombinant laminin-10 (human α5β1γ1 heterotrimer, α5 chain with C-terminal FLAG epitope) (from UniProt P07942 22-1786; P11047 34-1609) (ligand)
